# Measurements reported in article PMC7036143 (Molecular cell, 2020).
# Values joined by “and” are separate entries in the source; they are usually repeats but may differ in a detail not shown here. Identical values can stand only once. Like-named read-outs stand apart in the source and are kept apart here.
# T1: Ec CdnC:HORMA-ΔN (crystal) (Escherichia coli, UniProt D7Y2H2)
# T1 sequence (D7Y2H2 1-321): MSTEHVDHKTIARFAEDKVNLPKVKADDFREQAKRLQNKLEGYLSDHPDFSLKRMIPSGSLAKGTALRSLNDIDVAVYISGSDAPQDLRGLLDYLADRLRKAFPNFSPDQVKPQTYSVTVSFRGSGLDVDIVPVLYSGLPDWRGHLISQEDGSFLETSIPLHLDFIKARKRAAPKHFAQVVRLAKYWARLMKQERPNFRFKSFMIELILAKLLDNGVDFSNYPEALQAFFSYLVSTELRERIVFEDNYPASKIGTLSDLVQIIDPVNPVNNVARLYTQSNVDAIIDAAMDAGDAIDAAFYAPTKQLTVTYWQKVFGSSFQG
# T1 sequence (D7Y2H3 12-172 partner): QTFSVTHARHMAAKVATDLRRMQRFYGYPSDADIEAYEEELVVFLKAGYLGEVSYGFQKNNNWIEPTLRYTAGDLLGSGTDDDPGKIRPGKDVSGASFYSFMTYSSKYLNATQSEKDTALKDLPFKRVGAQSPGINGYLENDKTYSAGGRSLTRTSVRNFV
# T2: Ec CdnC:HORMA:Trip13^EQ (Escherichia coli, UniProt D7Y2H4, E159Q)
# T2 sequence (D7Y2H4 1-311 E159Q): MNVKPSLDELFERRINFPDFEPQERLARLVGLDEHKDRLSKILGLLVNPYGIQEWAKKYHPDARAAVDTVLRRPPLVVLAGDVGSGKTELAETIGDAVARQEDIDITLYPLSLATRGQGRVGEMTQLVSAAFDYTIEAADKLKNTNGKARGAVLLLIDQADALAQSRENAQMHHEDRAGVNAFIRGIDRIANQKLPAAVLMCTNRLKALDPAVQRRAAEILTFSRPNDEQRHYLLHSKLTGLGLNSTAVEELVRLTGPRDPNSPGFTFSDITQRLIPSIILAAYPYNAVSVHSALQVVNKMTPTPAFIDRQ
# T2 sequence (D7Y2H2 1-321 partner): T1 sequence (D7Y2H2 1-321)
# T2 sequence (D7Y2H3 1-172 partner): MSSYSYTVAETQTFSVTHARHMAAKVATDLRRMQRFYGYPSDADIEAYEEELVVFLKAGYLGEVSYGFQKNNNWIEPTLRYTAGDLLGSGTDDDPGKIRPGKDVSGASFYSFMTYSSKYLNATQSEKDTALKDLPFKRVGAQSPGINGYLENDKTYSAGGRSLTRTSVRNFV
# T3: Ec CdnC (Escherichia coli, UniProt D7Y2H2)
# T3 sequence (D7Y2H2 1-321): T1 sequence (D7Y2H2 1-321)
# T4: P. aeruginosa ATCC27853 CdnD (purified) (P. aeruginosa ATCC27853, UniProt P0DTF7 1-300)
# T4 sequence: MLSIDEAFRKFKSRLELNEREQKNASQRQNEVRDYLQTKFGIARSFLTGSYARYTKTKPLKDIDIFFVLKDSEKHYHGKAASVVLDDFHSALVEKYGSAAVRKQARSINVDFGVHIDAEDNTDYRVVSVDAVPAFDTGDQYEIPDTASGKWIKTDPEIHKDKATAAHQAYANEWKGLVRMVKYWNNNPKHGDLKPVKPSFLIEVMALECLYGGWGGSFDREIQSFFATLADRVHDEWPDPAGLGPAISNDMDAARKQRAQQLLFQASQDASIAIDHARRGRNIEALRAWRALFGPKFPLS
# T5: E. coli MS115-1 CdnC (purified, in complexes with HORMA) (E. coli MS115-1, UniProt D7Y2H2 1-321)
# T5 sequence (looked up): T1 sequence (D7Y2H2 1-321)
# T6: Pa CdnD (Pseudomonas aeruginosa ATCC27853, UniProt P0DTF7 1-300)
# T6 sequence: T4 sequence
# T7: Ec HORMA:CdnC complex (co-expressed, purified, 1:1) (E. coli MS115-1, UniProt D7Y2H2 1-321; D7Y2H3 1-172)
# T7 sequence (looked up) 1: T1 sequence (D7Y2H2 1-321)
# T7 sequence (looked up) 2: T2 sequence (D7Y2H3 1-172 partner)
# B1: P. aeruginosa ATCC27853 HORMA3 (purified, in vitro reconstitution) (natural protein)
# chain: MTTVVSRTFRSSPHRDALQTWDAIVELLTQGKDGTARSELRAVTGVAASLIADQAPKSAPIVATCDGPRTRIYCLFDEDAIDGDDANEEVLGFEPLKGDWGVSLPCPKEQLGWVQSALKKHSSRIIARDLSQGIATQAQADAGQALSLDLGGFLKS
# B2: E. coli MS115-1 HORMA with N-terminal His6-tag (purified) (natural protein, UniProt D7Y2H3 1-172, looked up)
# chain: T2 sequence (D7Y2H3 1-172 partner)
# B3: 40 bp dsDNA (5'-FAM Oligo #1/Oligo #2) (dsDNA)
# DNA 1: CCTTTCGAAGACTCATCACGGAGAGCAGACATCATCTGGC
# DNA 2: GCCAGATGATGTCTGCTCTCCGTGATGAGTCTTCGAAAGG
# B4: P. aeruginosa ATCC27853 HORMA2 (purified alone, crystallised) (natural protein, UniProt P0DTF6 1-166, looked up)
# chain: MSTVATYSYTHSVTYVTDNILKSLKDIILLSGLDPEHFADRWESNTRAIKTWLGTGDLRKVILEIYNPATDKLVTRWDIDIVYGWSDGDGSFWTDTEQLKYAIKKAGLLPSQAKYKLMLDTKPGRPDVEGWSKGSYRSTDGMVKQSLGSTVEHSGLAGQAGYWRQR
# B5: P. aeruginosa ATCC27853 HORMA2 (purified in complexes) (natural protein)
# chain: B4 chain
# B6: E. coli MS115-1 Trip13 E159Q (purified) (enzyme)
# chain: T2 sequence (D7Y2H4 1-311 E159Q)
# Tests used:
# [1] = biological target: T1, Ec CdnC:HORMA-ΔN (crystal); experiment: crystal structure; format: binding; settings: active site; copies contain either no ligand or AMP; co-purified
# [2] = biological target: E. coli MS115-1 CdnC (purified, in complexes with HORMA) (E. coli MS115-1) (UniProt D7Y2H2); experiment: crystal structure
# [3] = biological target: E. coli MS115-1 CdnC (purified, in complexes with HORMA) (E. coli MS115-1) (UniProt D7Y2H2); experiment: SEC
# [4] = biological target: E. coli MS115-1 CdnC (purified, in complexes with HORMA) (E. coli MS115-1) (UniProt D7Y2H2); experiment: SEC; remark: listed apart in the source
# Ec CdnC:HORMA:Trip13^EQ = biological target: T2, Ec CdnC:HORMA:Trip13^EQ; experiment: crystal structure, […] Å; format: binding; settings: four of six Trip13 subunits (A-D); 1 mM ATP, 5 mM MgCl2
# Ec CdnC = biological target: T3, Ec CdnC; experiment: crystal structure, […] Å; format: binding; settings: Mg2+; active site; ATP co-purified from E. coli
# [5] = biological target: Rhizobiales sp. Trip13 (Rhizobiales sp.); experiment: crystal structure
# [6] = biological target: B5; experiment: SEC-MALS
# [7] = biological target: T4, P. aeruginosa ATCC27853 CdnD (purified); experiment: SEC-MALS
# [8] = biological target: B6; experiment: crystal structure
# [9] = biological target: T5, E. coli MS115-1 CdnC (purified, in …); experiment: SEC-MALS
# Pa CdnD = biological target: T6, Pa CdnD; experiment: filter binding
# [10] = biological target: B5; experiment: crystal structure
# crystal structure [11] = biological target: the molecule itself; experiment: crystal structure
# crystal structure [12] = biological target: the molecule itself; experiment: crystal structure; remark: listed apart in the source
# [13] = biological target: T7, Ec HORMA:CdnC complex (co-expressed, …); experiment: SEC-MALS
molecule,measurement,setting,value
Nc1ncnc2c1ncn2[C@@H]1O[C@H](COP(=O)(O)O)[C@@H](O)[C@H]1O [AMP],crystal structure,[1],contain either no ligand or AMP in the active site
Ec HORMA-ΔN with N-terminal His6-tag (from UniProt D7Y2H3 12-172) (domain or fragment),stoichiometry N (HORMA-ΔN per CdnC (2:2 complex)),[2],1
Ec HORMA-ΔN with the His6-tag removed (from UniProt D7Y2H3 12-172) (domain or fragment),stoichiometry N (HORMA-ΔN per CdnC),[3],1
same,stoichiometry N (HORMA-ΔN per CdnC),[4],1
Nc1ncnc2c1ncn2[C@@H]1O[C@H](COP(=O)(O)OP(=O)(O)OP(=O)(O)O)[C@@H](O)[C@H]1O [ATP],"crystal structure, 2.64 Å",Ec CdnC:HORMA:Trip13^EQ,with four subunits (monomers A-D) bound to ATP
same,"crystal structure, 1.44 Å",Ec CdnC,the active site is occupied by one molecule of ATP that was co-purified
Rhizobiales sp. Trip13 (enzyme),stoichiometry N,[5],6
B1,stoichiometry N,[6],1 HORMA3 per HORMA2
same,stoichiometry N,[7],1 HORMA3 per CdnD
B2,binding result,[8],binds
same,stoichiometry N,[9],1 HORMA per CdnC (1:1 complex) and 1 HORMA per CdnC (2:2 complex)
B3,binding result,Pa CdnD,no binding
"EVMEFNP [Peptide 1 (EVMEFNP), tag cleaved]",binding result,[10],binds
B4,binding result,crystal structure [11],binds
B5,stoichiometry N,[7],1 HORMA2 per CdnD
B6,stoichiometry N,crystal structure [12],6
same,stoichiometry N,[13],6 Trip13^EQ per 1 CdnC:1 HORMA
